Reference: article PMC7006624

How the values were obtained:
Test in all cases: fluorescence polarization
[1] = molecular target: CLIP-G (CLIP-tag-GCN4 bZIP fusion) (UniProt P03069); conditions: no added NaCl; amino-C6-T (second T of TTTT loop); 40 mM Tris-HCl, 20 mM acetic acid, 12.5 mM MgCl2, 1 mM DTT, 1 uM ZnCl2, 100 nM calf thymus DNA, 0.02% Tween 20, pH 8.0, 25 C, with or without 200 mM NaCl
[2] = molecular target: ZF-CLIP (zif268-CLIP-tag fusion) (UniProt P08046); conditions: amino-C6-T (second T of TTTT loop), 40 mM Tris-HCl, 20 mM acetic acid, 12.5 mM MgCl2, 1 mM DTT, 1 uM ZnCl2, 100 nM calf thymus DNA, 0.02% Tween 20, pH 8.0, 25 C, with or without 200 mM NaCl
[3] = test system: AZ-CLIP (AZP4-CLIP-tag fusion) (designed); conditions: no added NaCl; amino-C6-T (second T of TTTT loop); 40 mM Tris-HCl, 20 mM acetic acid, 12.5 mM MgCl2, 1 mM DTT, 1 uM ZnCl2, 100 nM calf thymus DNA, 0.02% Tween 20, pH 8.0, 25 C, with or without 200 mM NaCl

Sequence of ZF-CLIP (zif268-CLIP-tag fusion) (P08046 other isoform, or with tags, fused parts or gaps): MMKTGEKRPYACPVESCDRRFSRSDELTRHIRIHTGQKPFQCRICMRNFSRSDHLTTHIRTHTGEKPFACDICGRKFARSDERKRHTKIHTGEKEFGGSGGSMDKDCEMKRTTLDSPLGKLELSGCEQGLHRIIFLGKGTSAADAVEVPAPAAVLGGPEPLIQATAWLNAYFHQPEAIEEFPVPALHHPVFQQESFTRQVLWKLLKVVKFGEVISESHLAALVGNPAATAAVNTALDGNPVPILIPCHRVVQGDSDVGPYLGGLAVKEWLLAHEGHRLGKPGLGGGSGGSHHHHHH

CGCGACGCCCACGCGCGTTTTCGCGCGTGGGCGTCGC [A488-ODN-ZF]
Kd [1]: > 1 µM
Kd [2]: 0.056 µM
Kd ([2]; no added NaCl): 0.0081 µM
Kd [3]: > 1 µM

CGCGATGCCACGTAGCGTTTTCGCTACGTGGCATCGC [A488-ODN-AZ]
Kd [1]: > 1 µM
Kd ([2]; no added NaCl): > 1 µM
Kd [3]: 0.074 µM

CGTTCATGACTCATGAGTTTTCTCATGAGTCATGAAC [A488-ODN-AP]
Kd [1]: 0.0051 µM
Kd ([2]; no added NaCl): > 1 µM
